The values that follow come from patent US20050222039A1, “Animal treatment” (priority 2001, published 2005).

Where a chain is given by its changes, count along the chain named.

Data set [1] relates to Romney ewes. The data set is described as follows: Trial 2: bromocriptine treatment of winter-lambing Romney ewes (plasma prolactin, wool growth, lambs). It is filed as in vivo, sheep. The note with it: bromocriptine given to pregnant ewes before or after parturition. As to the method: Natural and experimental changes in plasma prolactin concentration and their effects on wool production in winter-lambing Romney ewes were measured.
Fourteen non-pregnant and 29 pregnant ewes were maintained indoors from early April 1995 for 12 months under controlled photoperiod and controlled dietary intake. Two groups (n=8) were held under long day photoperiod (16L:8D; LD non-pregnant and LD-lambed) while 2 others were exposed to natural photoperiod (ND non-pregnant, n=6 and ND-lambed, n=7). Two further groups (n=7) of pregnant ewes housed in natural days were treated with bromocriptine, either from 1 week before parturition (ND-BrB) or 1-3 days after parturition (ND-BrA), to suppress prolactin secretion.
Lambing occurred between 12 and 18 June. Plasma prolactin, mean fibre diameter and wool growth were measured at regular intervals and the results were plotted in FIG. 3.

Data set [2] in a line: Trial 5: plasma prolactin after two 9-day prolactin infusions in non-pregnant Romney ewes. It is filed as in vivo, sheep. Particulars: intravenous 1.0 mg/kg/day for 9 days. As for the experimental part:
(§1) Twenty-one, mixed age, non-pregnant Romney ewes were maintained indoors in individual pens from September 2001 until February 2002. The ewes were fed to maintain a constant live weight. They were divided into 3 groups: short day controls (n=7), short day prolactin infused (n=7) and normal day controls (n=7). An ovine prolactin pituitary extract (1.0 mg/kg/day) was administered to each ewe in the short day infused group by intravenous infusion via a jugular cannula commencing on 9 October for 9 days. A second 9-day prolactin infusion was administered to the same ewes commencing on 20 November, 33 days after the end of the first infusion.
Plasma prolactin concentrations were measured at regular intervals and ten midside skin biopsies were collected at intervals between October and December 2001 for measurement of prolactin receptor long form gene expression by real-time PCR. The results are plotted in FIG. 10.

For data set [3], the system named is Romney ewes. Briefly: Trial 4: 3-, 9- or 18-day prolactin infusion, wool growth in pregnant Romney ewes. The note with it: for mean total patch weight (clean wool): 12-month trial. It is filed as in vivo, sheep. As for the experimental part: Trial 4 was conducted to compare different periods of exogenous prolactin administration on wool growth.
Eighteen 3 year old Romney ewes were maintained indoors in individual pens under natural photoperiod for 12 months from March 2000. […] The ewes were fed to maintain a constant maternal live weight (independent of conceptus and fleece weights). A control group (ND non-pregnant) was not mated (n=6). Twelve other ewes (comprising Groups 2-4) were mated on 23 April.
An ovine prolactin pituitary extract (1.0 mg/kg/day) was administered by intravenous infusion via a jugular cannula commencing 11 days after mating (4 May) for temporary periods of either 3 days (Group 2, n=6), 9 days (Group 3, n=3) or 18 days (Group 4, n=3).
The sheep were shorn on entry to the experiment and again at the conclusion of the experiment in March 2001 and a mid-side wool sample was measured for fibre diameter and yield. Wool samples were clipped from a standardised 100×100 mm mid-side patch on the right side of each ewe at monthly intervals to determine changes in seasonal clean wool production and mean fibre diameter. Wool growth and plasma prolactin concentration were measured at regular intervals and the results were plotted in FIGS. 7 and 8.

The test system of another data set is prolactin receptor. Particulars: cited from earlier work.
In data set [4] the test system is Romney ewes. It is filed as in vivo, sheep. The source says:
The effects of two methods of administration of exogenous prolactin on wool growth were examined.
Forty-three mixed age Romney ewes were maintained indoors in individual pens from April until October, and fed to maintain a constant maternal live weight (independent of conceptus and fleece weights). A control group (ND non-pregnant) was not mated (n=8). Thirty-five other ewes (comprising Groups 2-5) were mated in April. Groups 1-4 were maintained in natural photoperiod while Group 5 (LD-lambed, n=10) was subjected to long days (16L:8D) from 1 week after mating for the duration of the trial (ie 18 days).
An ovine prolactin pituitary extract (0.80 mg/kg/day) was administered by either daily subcutaneous injection to sheep of Group 3 (PRL-INJ, n=10) or by intravenous infusion via a jugular cannula to sheep of Group 4 (PRL-INF, n=2) (from one week after mating for a temporary period of 18 days).
The sheep were shorn on entry to the experiment and again at the conclusion of the experiment in late September and a mid-side wool sample was measured for fibre diameter and yield. Wool samples were clipped from a standardised 100×100 mm mid-side patch on the right side of each ewe at monthly intervals to determine changes in seasonal clean wool production and mean fibre diameter. Wool growth and plasma prolactin concentrations were measured at regular intervals and the results were plotted in FIGS. 4 and 5.

Data set [5] relates to prolactin receptor long form gene expression. Briefly: Trial 5: skin prolactin receptor long form gene expression by real-time PCR. It is filed as in vivo, sheep. As to the method: (§2) The relative expression of prolactin receptor mRNA was measured using Taqman real-time PCR (Applied Biosystems). RNA was extracted from skin samples using TRIzol reagent according to manufactures protocol (Invitrogen). Total RNA was then quantified using RiboGreen reagent (Invitrogen) and all samples were standardized to a concentration of 0.5 μg/μl of total RNA. The reverse transcriptase reaction (Superscript II RT-PCR kit, Invitrogen) was used to generate single stranded cDNA from 0.5 μg of total RNA.
as §1
Plasma prolactin concentrations were measured at regular intervals and ten midside skin biopsies were collected at intervals between October and December 2001 for measurement of prolactin receptor long form gene expression by real-time PCR. […]
Background: In qPCR the cycle at which signal appears reflects the starting amount.

Data set [6] shares this test system. Briefly: Trial 4: skin prolactin receptor long form gene expression by real-time PCR. It is filed as in vivo, sheep. As for the experimental part: as §2
(§3) The primers and probes for the long form of the prolactin receptor were designed using the Primer Express program (Applied Biosystems).
(§4) The 18S ribosomal RNA pre-developed assay reagent (Applied Biosystems) was used as an internal control and the reactions were set up according to the manufacturers instructions. Data was analysed using the software provided by Applied Biosystems. Results on relative mRNA quantities were obtained by the standard curve method.
Six midside skin biopsies were collected at intervals between April and June for measurement of prolactin receptor long form gene expression by real-time PCR and the results are plotted in FIG. 9.

Data set [7] deals with prolactin receptor gene expression. The data set is described as follows: Trial 6: skin prolactin receptor gene expression in Romney or Wiltshire ewes. Particulars: Wiltshire ewes treated in April, P<0.05. The data set is classed as in vivo, sheep. As for the experimental part:
(§5) Four groups, each comprised of seven 1-2 year old Romney or Wiltshire ewes were shorn and maintained indoors in individual pens from March until November 2002. The animals were fed to maintain a constant maternal live weight (independent of conceptus and fleece weights). The ewes were mated in March, and maintained in short days (8L:16D). Half of the ewes were cannulated and infusions of prolactin (40 mg/day) for 9 days commenced one week after mating. Blood samples and skin biopsies were collected from all ewes at intervals to monitor plasma prolactin and skin prolactin receptor gene expression respectively. The results are plotted in FIG. 11.

The test system is the same in data set [8]. The data set is described as follows: Trial 8: prolactin receptor gene expression in mice mammary gland. Particulars: 3-day infused group, days 7 and 14, P<0.05. It is filed as in vivo. As to the method: Swiss female mice were maintained in cages at a constant temperature of 22 C., under a photoperiod regime of 14 hours light: 10 hours dark, fed a diet of formulated mouse pellets ad libitum with access to fresh tap water. At 21 days of age, subcutaneous implants releasing 250 μg/day of bromocriptine over 60 days (Cat. Number SC-231; Innovative Research of America Inc.) were inserted under anaesthetic. At the same time, the mice received a slow release 100 μl osmotic pump (Alzet Model 1007D; Alza Corporation, Palo Alto, Calif.) delivering ovine prolactin (400 μg/day) for either 3 or 7 days. Mice were sacrificed in groups of 3 at intervals before, during and after prolactin administration. They were anaesthetised using CO2 and blood sampled by heart puncture, prior to euthanasia by cervical dislocation. The blood was centrifuged and the plasma stored at −20 C. by radioimmunoassay for ovine prolactin. The mammary glands were dissected from each mouse and snap frozen in liquid nitrogen prior to assay by real-time PCR for prolactin receptor gene expression. The results are plotted in FIG. 13.

The test system of the next data set is rabbits. Particulars: bromocriptine-treated rabbits, single injection of 3 mg of prolactin; cited from earlier work.
The nature of data set [9]: Trial 6: plasma prolactin after 9-day prolactin infusion in pregnant Romney or Wiltshire ewes. The data set is classed as in vivo, sheep. The note with it: infusion 40 mg/day for 9 days, pregnant ewes in short days. As for the experimental part: as §5
The subject of another data set is sheep. The note with it: sheep held in darkness, infusion of prolactin; cited from earlier work.
For data set [10], the system named is prolactin receptor long form gene expression. The data set is described as follows: Trial 3: skin prolactin receptor long form gene expression by real-time PCR. The data set is classed as in vivo, sheep. As for the experimental part: Six midside skin biopsies were collected at intervals between April and June for measurement of prolactin receptor long form gene expression by real-time PCR and the results are plotted in FIG. 6. An assay for the short form of the ovine prolactin receptor was also developed, but results are not presented since only very low levels of expression were detected.
as §2, §3, §4

The test system of another data set is cows. Particulars: infusions of exogenous bovine prolactin; cited from earlier work.
Setting [11] is: model parameter from literature.

Regarding `CC(C)C[C@H]1C(=O)N2CCC[C@H]2[C@]2(O)O[C@](NC(=O)[C@@H]3C=C4c5cccc6[nH]c(Br)c(c56)C[C@H]4N(C)C3)(C(C)C)C(=O)N12` [bromocriptine], in the data set on Romney ewes [1], the “birth weight or live weight changes of lambs” value is listed as “did not affect”.

B1: prolactin: ovine prolactin pituitary extract; peptide hormone of approximately 200 amino acids, given by infusion, injection or osmotic pump (protein, UniProt P01240 31-229, looked up)
Prolactin: TPVCPNGPGNCQVSLRDLFDRAVMVSHYIHNLSSEMFNEFDKRYAQGKGFITMALNSCHTSSLPTPEDKEQAQQTHHEVLMSLILGLLRSWNDPLYHLVTEVRGMKGVPDAILSRAIEIEEENKRLLEGMEMIFGQVIPGAKETEPYPVWSGLPSLQTKDEDARHSAFYNLLHCLRRDSSKIDTYLKLLNCRIIYNNNC
modifications: pituitary extract
For the molecule B1, the “plasma prolactin levels on termination of the infusions” value in [2] was “fell rapidly to baselines levels”. Also, the “plasma prolactin levels during infusion” value in [2] (short day ewes) is “approximately 500 ng/ml”. Moreover, the entries for the “mean total patch weight (clean wool)” value in the data set on Romney ewes [3] (3-day infusion), with Romney ewes [3] (9-day infusion) and in the data set with Romney ewes [3] (18-day infusion) were 0.74 g, 0.91 g and 0.66 g, respectively. In the data set on Romney ewes [3] (9-day infusion 1.0 mg/kg/day, during May), the “clean patch wool growth vs 3-day and 18-day infused groups” value is on record as “higher wool growth”. In addition, the “mean fibre diameter difference vs other infused groups” value in the data set with Romney ewes [3] (9-day infusion, July) is given as “approximately 3 μm”. Moreover, the “wool growth rate vs other infused groups” value in the data set on Romney ewes [3] (9-day infusion, July, P<0.01, persisted until November) was “higher than either of the other infused groups”. The “mean fibre diameter vs 3-day infused group” value with Romney ewes [3] (9-day infusion, June, P<0.01) is reported as “significantly higher”. The “α, rate of formation of dimer complex” value in the data set on prolactin receptor (model parameter from literature [Gertler et al., 1996]) is 48000 M⁻¹ s⁻¹. The “d12, dissociation rate of hormone-receptor complex” value in the data set on prolactin receptor (setting [11]) was 4717.4 day⁻¹. Further, the “d, dissociation rate of hormone-receptor complex” value in the data set with prolactin receptor (setting [11]) was 12.96 day⁻¹. In addition, in the data set with prolactin receptor (setting [11]), the “α1, rate of formation of trimer complex” value was 35000 M⁻¹ s⁻¹. In addition, the “γ, clearance rate constant of plasma prolactin” value in the data set on prolactin receptor (setting [11]) is 35.6 day⁻¹. For the same molecule, the “mean clean fleece weight” value with Romney ewes [4] (PRL-INF, 6-month trial, ND-lambed controls 1.23 kg, SEM ±0.13 kg, P<0.01) amounted to 1.63 kg. In addition, the “increase in mean fibre diameter” value with Romney ewes [4] (PRL-INF, by September, P=0.05) is 2 μm. For the same molecule, the “decline in clean wool growth rate” value in the data set with Romney ewes [4] (PRL-INF, intravenous infusion 18 days, n=2, May and throughout pregnancy) was “arrested in May and remained high”. Besides, the “September clean wool growth rate relative to untreated ND-lambed ewes” value in the data set on Romney ewes [4] (PRL-INF, intravenous infusion, P<0.001) was “approximately twice”. Besides, the “mean fibre diameter relative to ND-lambed controls” value in the data set with Romney ewes [4] (PRL-INJ, P<0.10) is recorded as “appeared to be lower”. Moreover, the “September clean wool growth vs untreated ND-lambed ewes” value with Romney ewes [4] (PRL-INJ, daily subcutaneous injection, P<0.05) is given as “lower”. In addition, in the data set on Romney ewes [4] (daily subcutaneous injections 0.8 mg/kg/day (PRL-INJ)), the “decline in clean wool growth rate compared to pregnant controls” value was “no initial effect”. The “prolactin receptor gene expression” value in [5] (first 9-day infusion, P<0.01) is “elevated”; in data set [5] (second 9-day infusion, P<0.02), “elevated”. In addition, the “prolactin receptor gene expression following commencement of infusions” value in [6] (3-day infusion group) is recorded as “all groups except the 3-day group”; in data set [6] (9-day and 18-day infusion groups), “dropped significantly”. In addition, the “prolactin receptor gene expression following termination of infusions” value in data set [6] (all infused groups, not statistically significant) is given as “rose”. In data set [7], the “prolactin receptor gene expression in September vs non-treated Wiltshire ewes” value was “increase”. Moreover, the “prolactin receptor gene expression vs control group and 7-day infused group” value in [8] is “elevated”. The “recovery in milk yield” value with rabbits is given as “accelerated”. For the same molecule, the “plasma prolactin levels during prolactin administration” value in data set [9] is recorded as “approximately 500 ng/ml”. Also, the nitrogen retention result in the data set on sheep is reported as “increases”. Moreover, the “prolactin receptor gene expression, differences between remaining treatment groups” value in data set [10] (PRL-INJ (injected) among remaining groups, over the trial) is given as “no significant differences”. Further, the “duration of high level of receptor expression vs untreated ewes” value in data set [10] (infused ewes, April to June, P<0.05) is listed as “sustained for two months”. Moreover, in data set [10] (infused ewes, during and after the 18 day infusion, P<0.01), the “prolactin receptor gene expression compared to other treatment groups” value is recorded as “significantly elevated”.

B2: bovine prolactin: exogenous bovine prolactin infused in cows (literature) (protein, UniProt P01239 31-229, looked up)
Prolactin: B1 Prolactin with N31D, V108A, H165Y
As for B2, in the data set on cows, the “bromocriptine-induced reductions in milk yield” value is “can prevent”.
